# According to the DeepSol protein solubility set:
# Experiment: soluble on expression in E. coli; label from the status in PepcDB or PDB records
row,Sequence,soluble on expression in E. coli
1,MITMPKLFIYHANQCNPKKCTSLKMAKMNKAILLKNPYKVPKNSLILNPYAEKALSPEDKEIVEKFGITALDCSWKEAELMFKKFKFKNQRSLPFLVACNPINYGKPCMLSTLEAFIAALYITNFKDEAWDLTSCFKWAETFIKVNYELLERYSNAKNSMEVVEIQQDFLRKLEHHHHHH,soluble
2,MSSLTDKTRNGALKRNLLRQMLKASVFKFGEFQLKSGQISPIYIDLRECFGHPGLLMLISEAISKQVEISEVQYAGVLGIPYAALPYASVAAGNYLKKPLLIVRKEAKSYGTKKLIEGLYQPNDRLILIEDVVTTGGSILDVVKVLHTENLVASDVFCILDREQGGRQKLQDAGVTLHSLLDMQTVLTFLYSTGAIGDEQWHGIVQALNLPYTSPTKLEINSELENLSSLPYVENVRTPLAERESLTESALIKKILGIMRRKKSNLCLAVDYTTVEQCLQMIELAGPFVLAIKLHADAITDFNEEFTRKLTTMANDMDFIIFEDRKFGDTGNTNLLQLTGAQKIANWADVVTVHAVQGSDSIAGVFRKLAKDPTYRLSGVLLIAQLSTKGSLTALEGYTETAVKIANENRDVISGFITQTRVSACSDLLNWTPGVNLDAKSDSAGQQWRGVDEAIEVQQNDIIIVGRGVTSSSEPVQQLKRYRQIAWDALTRSDDSI,not soluble
3,MALPKLTDEQRKEALAKAAEARKARAELKEQLKRSDITLKEVLDKASSDEIIGKTKVSALLESLPKVGKVKAKEIMEELEIAQTRRLRGLGDRQRRALLERFGYSED,not soluble
4,MLLSRICRFRMLTRFTRLRPILQLRYLAQNSHIEEEYFEELEPTGIISSHETSQEPPKRTGFRSQNLSEDADFVENVVGALTDQRAKDVFVVKSEETEMTPYTHKIICSAFNSRQASAISENLRSLLKIDGVSNGSMSHARRSTKRSNGWYVSEVERVQVHVMSEECREKYDLEAIWAGDDRILDEIDEEKQKILLPPRR,not soluble
5,MDTMAKINQFRDERNWRPHHNEKDLALSICLEAAELLELFQWKTAEEGIKQEERIKEELADVLIYSYMMADNLGFDLDEIIEEKLKKNALKYPVPH,not soluble
6,MADPLSKEEDIQHRPDSPPLGLLDPSRIQNPLANDQLHQVPQQQNPSGFVMPEQPRQQPPPQTWQRTPTMSPANIFQGGSGTPGSQRSSTGTPNHQMGNPPQHQQQQFFHGESPAHSQGTPMTPQSAGMPGSNCGTPQSAGGPPTSVPYDYQQAQMQQQQHAQAMAAAAAAQQQQQQHLQQQQYAQNPQQMHDSPYRQHQMMQMHQHPGHPSQYPPGYPQQQAAQWQQQMYARQAAAQAQAQAQAQAQAQAQQRAAAQRVPVPYPPGAYPPGMPGPMTPGYPAQAPAAPRTTPGSAGPGTGPPGTPQRPQYPQGTNPQPQQAQFTYPPTQQMTPTGQPPGYPGMPGTPTFSSPAHQMFRQGQPTAPPGMRQYISPQAGQQQPTPGTPHRFAPPGPSGTTSSPHFAPGAPGADLRSPSLMSPNQQSQQHTPVLPRSLHNEMTSHGMRPIALPSQPLPQTQGTPQPILSASSLPPQSAGATQFVYRPQQPNQMNTMNQMNQMHHDVNPFPIQMNVDPELYLTGIHFHCFDSEKLFEDKLDRKNLEFMIKYHGGDIEFEASKFHERIHQITHVLVDSCRNTNVMTSLEHRKRIVSIQWIIDVMERERVELPWRIAHLPPPFNENFRPYLGKLFSLSGFDSSERAAISFMAEMMGAKITPFLARQNDLLIAKQPADKVTRAQEWKVPVVNFQWIADAYVCDEASPQKRPNVENPRYQLENPVMTNVNTSPNHIEGASQEFGAMMSCWKSQTIIADQAYEKARQNRKTLQNNTFFFPSKRLSDQAVAPTEDEIKSSRARLDEIKTHWEEHQEKMKDTPLSKEFYRVREPQARVSAWFGEGIDDEALTILKKKLEFLGGECVEKIRDATHVILISGRRSLVLLESIIRGKNIMDPEWIVDSYKQKMWLDTLDYFLHDKELEKEFAYNCKRSVLRARNKPVFEDIEFHVTRFVEPNQNDLVRLIELGGGNVHSEKPDPKYLAKCVETEQPFIIISCENDARFLSYLAGSKLPIYNVDLVLFAMLRQQIEPLPQYRIPIPIVVKTPVFRQPPPYTAPPKDQEPAASLASEPTRAADVLSENS,not soluble
7,MSLKGLTVGFLPKAVNNPYFTSADKGGEKALEELGSSYKEVGPSSATDTSGQVSYVNTLTQQQVDAMAVSAQDPGALCTALKQAMKNGIEVVTYDSDTKTGCRNAFVSQASAEDLGRTEVQLLAEQIGYKGEIAILSAAQTATNQNTWIGFMKDELKDPKYKNVKLVKVAYGNDDAQQSFQQTQGLLQEHPKLAGIISPTTVGIKAAAQYLSGSKYKGKVKLTGLGTPNDMRKYVKNGTVEGFELWDPAKLGELAARTAVALSSGQISGKEGETFKAGDMGSYTIGKDGEGHHHHHH,soluble
8,MGSDKIHHHHHHMKLILSVESVRFPLTGIGRYTYELASRLQHAEQISDLRLFAGSRFLPELLKPSDQSDAVHGLKRFVQKNALAVEAYRRLMPLLRKRALRGHEDFIYHSTNFYLPPFAGPRVATFHDLSPFTWAHCHTPQIARYLQKELKLTLERADALITVSHHTRKELADYFGWPLERIHAVPLASSPQFHPRTPQALRETLARHGLELGGYSLFVGTIEPRKNIETLLNAYGRLPLALRQRWPLILSGYHGWRSEAIHSRIAQAQQEGWARYLGFVASEDLPLLFAGARLFTFPSHYEGFGLPVLEAMSSGVPVVCSNSSSLPEVAGSAALMCAPDDVEGLTGLLHQGLEDEAWRSAAVQRGLLHAGGFSWERCAQGTVEVYKSVKER,not soluble
9,MEVPENLKNPQNARREGSNMKCLADYSVEKEVGEGSFSTVYLARRKEPKNDENPEVALKICLKRLILKNKMVPYIHREKEALALISREENAHPGIVTLYATFQDSESLYFVLEYAKYGDLCTLMQKQPDSKFNVADSRYYAANLLSALEHIHKLGIIHRDVKADNLLVKSDGRIMLTDFGSSKFLSDYQKIQENPVEEEQPTGRRSSFVGTAFFVTPELLTGSEMSPSSDLWAFSVTLYLFLTGIYPFNDMSEYLVFRRIQDILYTFSEDFPDENAKNLIERLLVKEQKSRLTSQEIKEHKFFESIDFEHLEQLEPPRIY,not soluble
10,MGKLVEGVWHDVWYDTKANGGKFVREDAGFRDWIKNDSEAVFQPESGRYHLYVSLACPWAHRTLIFRKLKGLEPHIDVTVVCPDMLSQGWQMGLPEPLFGHTRMHQIYTQAKPDYTGRVTVPVLWDKKTNTIVSNESSEIIRMFNSAFNDLTGNHDDYYPEPLRGVIDEWNDYIYPNVNNGVYRCGFATSQEAYEEAFESLFSALDKIDAHLATHRYLAGNKITEADWRLFTTLVRFDAVYVGHFKCNKQRIADYVNIQGYLKELYQIDGIADTTDFYHVKRHYYFSHTGINPTQVVPKGPDLDFSSPHQREMIG,soluble
11,MAHHHHHHMSHPKMKLVRRARKSIRERRMKACLKDLSSNLEKVEMRVFRQQKQKRQQQQRKGAGNHITVPPDVLRGVMNPELYHIECRLHQEACMPPPPPYEGYSQRERCDGARRRIGFVEFVTIAEMVRLGAMPGTPARVGI,not soluble
12,MGSDKIHHHHHHMSKPLNFVMISPHFPANFETFAVRLKECGFNTLGIADTPYEQLSENLRNSLTEYYRVDNMEDYEQVYRAVGYFAHKYGRIDRIESHNEYWLELDAKLRTDFNVPGYKNDDMLAIKTKAQMKEIFRQAGLKVAQGKVFNSDDEARKLAKKLKFPVIIKPNSGVGASDTYKIKSVQELEDFFSYKNAHVEYIMEEFIDGDIITFDGLTDKEGNIVFYSGLEYSECVLDTVENDNDMFYYVPREISTDLIKLGQKCVDAFNVRERFFHFEFFRVKKTGDLMPLEINCRPPGGLTIDMWNYANDFDVFREYANIVKENKFYTNITHPWNVVYISRKANKNYVNAIEDVQQKYSTNIISVQTVPGVFAKIMGEHGILARTETLDQMHEIAQFAQQKA,not soluble
13,IRVNTNKGGGVWESGAANSQSTSWGSGNGANSGGSRRGWGTPAQNTGTNLPSVEWNKLPSNQHSNDSANGNGKTFTNGWKSTEEEDQGSATSQTNEQSSVWAKTGGTVESDGSTESTGRLEEKGTGESQSRDRRKIDQHTLLQSIVNRTDLDPRVLSNSGWGQTPIKQNTAWDTETSPRGERKTDNGTEAWGSSATQTFNSGACIDKTSPNGNDTSSVSGWGDPKPALRWGDSKGSNCQGGWEDDSAATGMVKSNQWGNCKEEKAAWNDSQKNKQGWGDGQKSSQGWSVSASDNWGETSRNNHWGEANKKSSSGGSDSDRSVSGWNELGKTSSFTWGNNINPNNSSGWDESSKPTPSQGWGDPPKSNQSLGWGDSSKPVSSPDWNKQQDIVGSWGIPPATGKPPGTGWLGGPIPAPAKEEEPTGWEEPSPESIRRKMEIDDGTSAWGDPSKYNYKNVNMWNKNVPNGNSRSDQQAQVHQLLTPASAISNKEASSGSGWGEPWGEPSTPATTVDNGTSAWGKPIDSGPSWGEPIAAASSTSTWGSSSVGPQALSKSGPKSMQDGWCGDDMPLPGNRPTGWEEEEDVEIGMWNSNSSQELNSSLNWPPYTKKMSSKGLSGKKRRRERGMMKGGNKQEEAWINPFVKQFSNISFSRDSPEENVQSNKMDLSGGMLQDKRMEIDKHSLNIGDYNRTVGKGPGSRPQISKESSMERNPYFDKDGIVADESQNMQFMSSQSMKLPPSNSALPNQALGSIAGLGMQNLNSVRQNGNPSMFGVGNTAAQPRGMQQPPAQPLSSSQPNLRAQVPPPLLSPQVPVSLLKYAPNNGGLNPLFGPQQVAMLNQLSQLNQLSQISQLQRLLAQQQRAQSQRSVPSGNRPQQDQQGRPLSVQQQMMQQSRQLDPNLLVKQQTPPSQQQPLHQPAMKSFLDNVMPHTTPELQKGPSPINAFSNFPIGLNSNLNVNMDMNSIKEPQSRLRKWTTVDSISVNTSLDQNSSKHGAISSGFRLEESPFVPYDFMNSSTSPASPPGSIGDGWPRAKSPNGSSSVNWPPEFRPGEPWKGYPNIDPETDPYVTPGSVINNLSINTVREVDHLRDRNSGSSSSLNTTLPSTSAWSSIRASNYNVPLSSTAQSTSARNSDSKLTWSPGSVTNTSLAHELWKVPLPPKNITAPSRPPPGLTGQKPPLSTWDNSPLRIGGGWGNSDARYTPGSSWGESSSGRITNWLVLKNLTPQIDGSTLRTLCMQHGPLITFHLNLPHGNALVRYSSKEEVVKAQKSLHMCVLGNTTILAEFASEEEISRFFAQSQSLTPSPGWQSLGSSQSRLGSLDCSHSFSSRTDLNHWNGAGLSGTNCGDLHGTSLWGTPHYSTSLWGPPSSSDPRGISSPSPINAFLSVDHLGGGGESM,soluble
14,STGQGQSASGSSAWSTVFRHVRYENLIAGVSGGVLSNLALHPLDLVKIRFAVSDGLELRPKYNGILHCLTTIWKLDGLRGLYQGVTPNIWGAGLSWGLYFFFYNAIKSYKTEGRAERLEATEYLVSAAEAGAMTLCITNPLWVTKTRLMLQYDAVVNSPHRQYKGMFDTLVKIYKYEGVRGLYKGFVPGLFGTSHGALQFMAYELLKLKYNQHINRLPEAQLSTVEYISVAALSKIFAVAATYPYQVVRARLQDQHMFYSGVIDVITKTWRKEGVGGFYKGIAPNLIRVTPACCITFVVYENVSHFLLDLREKRK,soluble
15,MRDNASLAHTQWNCKYHIVFAPKYRRQVIYGKIKKDIGQILRKLCEMKGVEIIEASLCPDHIHMLVSIPPKISVSSFMGYLKGKSSLMIFNRHANLKYKYGNRHFWCRGYYVDTVGRNRKAIEQYIRRQLQEDIASDQISLNEYIDPFTGERVNKSKK,not soluble
16,SLKIKNILLSGGSGKRLWPLSRSLYPKQFLKLFDHKSLFELSFKRNASLVDETLIVCNEKHYFLALEEIKNEIKNKSVGFLLESLSKNTANAIALSALMSDKEDLLIVTPSDHLIKDLQAYENAIKKAIDLAQKGFLVTFGVSIDKPNTEFGYIESPNGLDVKRFIEKPSLDKAIEFQKSGGFYFNSGMFVFQAGVFLDELKKHAPTILKGCERAFESLENAYFFEKKIARLSEKSMQDLEDMSIDIALMQQSHKIKMVELNAKWSDLGNFNALFEEAANEPKENVSLNQTPVFAKESENNLVFSHKVSALLGVENLAVIDTKDALLIAHKDKAKDLKALVNEVETNN,soluble
